# What was measured:
# HLA-A*0201 [1] = molecular target: T1, HLA-A*0201 (human); assay: competitive inhibition of 125I-labelled standard peptide binding to purified HLA, gel filtration
# T1 construct: also called HLA-A2.1
# HLA-A*0201 [2] = molecular target: T2, HLA-A*0201 (human); assay: inhibition of 125I-labelled standard peptide binding to purified HLA, gel filtration; ratio = IC50 of standard / IC50 of test peptide
# T2 construct: also called HLA-A2.1
Binder,relative binding ratio (IC50 of standard peptide / IC50 of test peptide) (HLA-A*0201 [1]) [ratio],relative binding ratio (HLA-A*0201 [2])
"LVSEFSRM (Synthetic peptide) [HER2/neu A02 supermotif peptide, position 972, 8 amino acids]",0.0001,–
"LVSEFSRMA (Synthetic peptide) [HER2/neu A02 supermotif peptide, position 972, 9 amino acids]",0.0001,–
"MAGVGSPYV (Synthetic peptide) [HER2/neu A02 supermotif peptide, position 774, 9 amino acids]",0.0014,–
"MARDPQRFV (Synthetic peptide) [HER2/neu A02 supermotif peptide, position 979, 9 amino acids]",0.0001,–
"MIMVKCWMI (Synthetic peptide) [HER2/neu A02 supermotif peptide, position 953, 9 amino acids]",0.0051,–
"NASLSFLQDI (Synthetic peptide) [HER2/neu A02 supermotif peptide, position 68, 10 amino acids]",0.0001,–
"NLQVIRGRIL (Synthetic peptide) [HER2/neu A02 supermotif peptide, position 427, 10 amino acids]",0.0001,–
"NVKIPVAIKV (Synthetic peptide) [HER2/neu A02 supermotif peptide, position 745, 10 amino acids]",0.0001,–
"NVLVKSPNHV (Synthetic peptide) [HER2/neu A02 supermotif peptide, position 850, 10 amino acids]",0.0001,–
"PAARPAGATL (Synthetic peptide) [HER2/neu A02 supermotif peptide, position 1158, 10 amino acids]",0.0001,–
"PAEQRASPL (Synthetic peptide) [HER2/neu A02 supermotif peptide, position 643, 9 amino acids]",0.0001,–
"PAFSPAFDNL (Synthetic peptide) [HER2/neu A02 supermotif peptide, position 1211, 10 amino acids]",0.0001,–
"PAREIPDLL (Synthetic peptide) [HER2/neu A02 supermotif peptide, position 927, 9 amino acids]",0.0001,–
"PASPETHLDM (Synthetic peptide) [HER2/neu A02 supermotif peptide, position 36, 10 amino acids]",0.0001,–
"RASPLTSII [HER2/neu peptide, position 647, 9 amino acids]",–,0.0002 ratio to standard peptide
"RLPASPETHL [HER2/neu peptide, position 34, 10 amino acids]",–,0.0001 ratio to standard peptide
"RLPQPPICT [HER2/neu peptide, position 940, 9 amino acids]",–,0.0002 ratio to standard peptide
"RLRIVRGTQL [HER2/neu peptide, position 98, 10 amino acids]",–,0.0001 ratio to standard peptide
"RLVHRDLAA [HER2/neu peptide, position 840, 9 amino acids]",–,0.0001 ratio to standard peptide
"RMARDPQRFV [HER2/neu peptide, position 978, 10 amino acids]",–,0.002 ratio to standard peptide
"SAVVGILLVV [HER2/neu peptide, position 656, 10 amino acids]",–,0.0009 ratio to standard peptide
"SAWPDSLPDL (T0022 prints L there and the analog Her2/neu.415.I8 implies a native L, so L is used) [HER2/neu peptide, position 413, 10 amino acids]",–,0.0002 ratio to standard peptide
"SIISAVVGIL [HER2/neu peptide, position 653, 10 amino acids]",–,0.0002 ratio to standard peptide
"SLPTHDPSPL [HER2/neu peptide, position 1100, 10 amino acids]",–,0.0059 ratio to standard peptide
"SLRELGSGL [HER2/neu peptide, position 457, 9 amino acids]",–,0.0002 ratio to standard peptide
"STDVGSCTLV [HER2/neu peptide, position 305, 10 amino acids]",–,0.0001 ratio to standard peptide
"SVFQNLQVI [HER2/neu peptide, position 423, 9 amino acids]",–,0.0017 ratio to standard peptide
"TAENPEYLGL [HER2/neu peptide, position 1242, 10 amino acids]",–,0.0001 ratio to standard peptide
"TAPLQPEQL [HER2/neu peptide, position 389, 9 amino acids]",–,0.0002 ratio to standard peptide
"TIDVYMIMV [HER2/neu peptide, position 948, 9 amino acids]",–,0.0005 ratio to standard peptide
